In the MegaScale stability set (Tsuboyama et al. 2023):

B1: 6YSE (parent)
chain: HERALMVNRLQKLTRMLRVHPDPKWKQEQQELIKRLK

Variants of: B1
Assay: folding stability dG (cDNA display proteolysis); higher = more stable
Settings: PBS, room temperature

Folding stability dG [kcal/mol] of substitutions, site by site:
Q27: S 1.04, R 1.23, N 1.09, E 1.42, W 0.767, M 1.38, V 0.985, L 1.62, G 0.59, D 0.957, T 1.01, F 1.14, H 1.21, A 1.6, K 1.46, I 1.22, Y 0.821
K37: E 1.05, S 1.19, H 1.19, L 1.42, Q 1.8, I 1.08, R 1.55, F 1.68, G 1.27, D 0.831, M 1.7, N 1.24
Q29: R 1.47, L 1.85, E 0.805, T 0.863, V 1.68, S 0.65, W 1.47, A 1.48, M 1.72, H 0.663, D -0.859, Y 1.7, F 1.53, C 1.52, I 1.69
K34: C 1.59, V 1.03, R 1.51, I 1.31, Y 1.02, F 1.2, L 1.15, W 0.902, E 1.14, G 0.802, N 1, D 0.366, S 1.07, M 1.34, T 1.27, A 1.37, Q 1.25, H 1.11
K26: Y 1.17, T 0.715, R 1.32, W 0.964, Q 1.03, N 0.211, L 1.45, S 0.461, V 1.16, I 1.4, M 1.29
Q30: S 1.11, W 1.39, D 0.872, A 1.07, G 0.68, V 1.1, N 0.979, L 1.52, Y 1.04, F 0.851, H 0.978, E 1.38, T 1.13, C 1.75, I 1.37, K 0.968, M 1.42, R 1.21
E31: Q 0.963, G 0.441, S 0.996, R 1.15, L 1.08, W 1.4, Y 1.1, V 0.669, I 1.14, C 1.69, D 1.38, A 1.2, K 0.805, T 0.995, M 1.45, H 0.812, N 0.839, F 1.01
I33: V 0.738, A 0.217, K 0.269, F 0.663, G -0.702, W 0.93, E -0.101, L 1.17, T 0.17, R 0.898, Y 0.751, H -0.268, N 0.375, Q -0.155, M 0.592, S -0.232
R35: L 1.73, A 1.24, F 1.18, V 1.14, H 0.82, T 0.734, K 1.51, I 1.58, G -0.14, Y 1.16, N 0.739, W 1.42, D -0.514, S 0.493, Q 1.19, E 0.729, M 0.84
E28: Y 0.612, S -0.485, F 0.366, A 0.638, D -0.285, N -0.895, T -0.079, W 0.824, R -0.089, L 0.849, I 1.05, Q 0.317, V 0.452, M 0.854
L32: I 0.927, W -0.364, F -0.201, Y -0.525, M -0.196
L36: M 0.478, W -0.411, F 0.524, R -0.888, I 0.873, Y -0.212
